From publication PMC6820557, “Discovery of dual-activity small-molecule ligands of Pseudomonas aeruginosa LpxA and LpxD using SPR and X-ray crystallography” (Scientific Reports, 2019)

Columns and labels:
[1] = target: the molecule itself; assay: SEC; HiLoad 16/60 Superdex 75; 20 mM Tris pH 8.6, 250 mM NaCl, 1 mM EDTA
[2] = target: the molecule itself; assay: SEC; HiLoad 16/60 Superdex 75; 20 mM Tris-HCl pH 8.6, 250 mM NaCl
[3] = target: the molecule itself; assay: crystal structure; LpxA soaked with compound 1 (2.10 Å) or compound 2 (2.00 Å); P212121, six monomers per asymmetric unit; 12% PEG 1000, 0.2 M calcium acetate, 0.1 M imidazole pH 7.0

B1: biotinylated avidity (Avi) tagged LpxD (enzyme, Pseudomonas aeruginosa, UniProt Q9HXY6 1-353, looked up)
chain: MMSTLSYTLGQLAAHVGAEVRGDADLPIQGLATLQEAGPAQLSFLANPQYRKYLPESRAGAVLLTAADADGFAGTALVVANPYLAYASLSHLFDRKPKAAAGIHPTAIVAADAEVDPSASVGAYAVIESGARIGAGVSIGAHCVIGARSVIGEGGWLAPRVTLYHDVTIGARVSIQSGAVIGGEGFGFANEKGVWQKIAQIGGVTIGDDVEIGANTTIDRGALSDTLIGNGVKLDNQIMIAHNVQIGDHTAMAACVGISGSAKIGRHCMLAGGVGLVGHIEICDNVFVTGMTMVTRSITEPGSYSSGTAMQPAAEWKKSAARIRQLDDMARRLQQLEKRLAAVTSSGDASSDA
modifications: biotin (on the Avi tag)
notes: LpxD, Pseudomonas aeruginosa; gene inserted into the BamHI and HindIII sites of the pAvibir plasmid; printed mass of Avi-LpxD 39.8 kDa; also called Avi-LpxD; source: E. coli Rosetta DE3 pLysS, purified (HisTrap, Superdex 75)
Q: Which “stoichiometry N” value [1] does the source give for B1 here?
A: 3

B2: N-terminal His-tagged P. aeruginosa LpxD with a 2 amino acid deletion (enzyme, Pseudomonas aeruginosa, UniProt Q9HXY6 3-353, looked up)
chain: STLSYTLGQLAAHVGAEVRGDADLPIQGLATLQEAGPAQLSFLANPQYRKYLPESRAGAVLLTAADADGFAGTALVVANPYLAYASLSHLFDRKPKAAAGIHPTAIVAADAEVDPSASVGAYAVIESGARIGAGVSIGAHCVIGARSVIGEGGWLAPRVTLYHDVTIGARVSIQSGAVIGGEGFGFANEKGVWQKIAQIGGVTIGDDVEIGANTTIDRGALSDTLIGNGVKLDNQIMIAHNVQIGDHTAMAACVGISGSAKIGRHCMLAGGVGLVGHIEICDNVFVTGMTMVTRSITEPGSYSSGTAMQPAAEWKKSAARIRQLDDMARRLQQLEKRLAAVTSSGDASSDA
notes: LpxD, Pseudomonas aeruginosa; they lay immediately after the N-terminal 18-AA hexahistidine tag and protease site (thrombin site replaced by a TEV site); Parent construct is that of the published structure (PDB 3PMO), with the thrombin site replaced by a TEV site; The mutagenesis primer reads ENLYFQG followed by STLSYT; Two of the deposited entries 6UEC, 6UED, 6UEE, 6UEG hold this construct; also …
Q: How did the “stoichiometry N” value [2] turn out when B2 was run?
A: 3

B3: P. aeruginosa LpxA (enzyme, Pseudomonas aeruginosa)
chain: MSLIDPRAIIDPSARLAADVQVGPWSIVGAEVEIGEGTVIGPHVVLKGPTKIGKHNRIYQFSSVGEDTPDLKYKGEPTRLVIGDHNVIREGVTIHRGTVQDRAETTIGDHNLIMAYAHIGHDSVIGNHCILVNNTALAGHVHVDDWAILSGYTLVHQYCRIGAHSFSGMGSAIGKDVPAYVTVFGNPAEARSMNFEGMRRRGFSSEAIHALRRAYKVVYRQGHTVEEALAELAESAAQFPEVAVFRDSIQSATRGITR
notes: LpxA, Pseudomonas aeruginosa; Two of the deposited entries 6UEC, 6UED, 6UEE, 6UEG hold this protein
Q: Does B3 bind [3]?
A: binds

B4: biotinylated avidity (Avi) tagged LpxA (enzyme, Pseudomonas aeruginosa, UniProt Q9X6P4 1-258, looked up)
chain: MSLIDPRAIIDPSARLAADVQVGPWSIVGAEVEIGEGTVIGPHVVLKGPTKIGKHNRIYQFSSVGEDTPDLKYKGEPTRLVIGDHNVIREGVTIHRGTVQDRAETTIGDHNLIMAYAHIGHDSVIGNHCILVNNTALAGHVHVDDWAILSGYTLVHQYCRIGAHSFSGMGSAIGKDVPAYVTVFGNPAEARSMNFEGMRRRGFSSEAIHALRRAYKVVYRQGHTVEEALAELAESAAQFPEVAVFRDSIQSATRGITR
modifications: biotin (on the Avi tag)
notes: LpxA, Pseudomonas aeruginosa; gene inserted into the BamHI and HindIII sites of the pAvibir plasmid; printed mass of Avi-LpxA 31.6 kDa; also called Avi-LpxA; source: E. coli Rosetta DE3 pLysS, purified (HisTrap, Superdex 75)
Q: How did the “stoichiometry N” value [1] turn out when B4 was run?
A: 3
